This passage reports self-cleavage results from the RNAGym collection of RNA variant scans (doi:10.7554/elife.80360).

First the molecules themselves.
B1: HDV Ribozyme (parent)
chain: GGCCGGCAUGGUCCCAGCCUCCUCGCUGGCGCCGGCUGGGCAACAUUCCGAGGGGACCGUCCCCUCGGUAAUGGCGAAUGGGACCCA

Variants of B1 are the subject of this series. As to the kind of experiment: self-cleavage, relative activity (ratio to wild type); higher = more cleavage; co-transcriptional.
With GGCCGGCAUGGUCCCAGCCUCUUCGCUGGCGCCGGCUGGGCAACAUUCCGAGGGGACCGUCCCCUCGGUAACGGCGAAUGGGACCCA [C22U U72C], the self-cleavage was determined as 0.193.
Next, GGCCGGCAUGGUCCCAGCCUCCACGCUGGCGCCGGCUGGGCAACAUUCCGAAGGGACCGUCCCCUCGGUAAUGGCGAAUGGGACCCA [U23A G52A]: 1.02; GGCCGGCAUGGUCCCAGCCUCCACGCUGGCGCCGGCUGGGCUACAUUCCGAGGGGACCGUCCCCUCGGUAAUGGCGAAUGGGACCCA [U23A A42U]: 0.57; GGCCGGCAUGGUCCCAGCCUCCACGCUGGCGCCGGCUGGACAACAUUCCGAGGGGACCGUCCCCUCGGUAAUGGCGAAUGGGACCCA [U23A G40A]: 1.14.
Turning to GGCCGGCAUGGUCCCAGCCUCCACUCUGGCGCCGGCUGGGCAACAUUCCGAGGGGACCGUCCCCUCGGUAAUGGCGAAUGGGACCCA [U23A G25U], the self-cleavage was found to be 0.104.
With GGCCGGCAUGGUCCCAGCCUCCACGCUGGCGCCGGCUGGGCAACAUUCCGAGGGGACCGUCCCCUCGGUAAUGGCUAAUGGGACCCA [U23A G76U] the figure was 0.941.
With GGCCGGCAUGGUCCCAGCCUCCCCGCUGGCGCCGGCUGGGCGACAUUCCGAGGGGACCGUCCCCUCGGUAAUGGCGAAUGGGACCCA [U23C A42G], the self-cleavage was 0.227.
For GGCCGGCAUGGUCCCAGCCUCCACGCUGGCGCCGGCUGGGCAACAUUCCGAGGGGACAGUCCCCUCGGUAAUGGCGAAUGGGACCCA [U23A C58A], the self-cleavage worked out at 1.12.
Turning to GGCCGGCAUGGUCCCAGCCUCCACGCUGGCGCCGGCCGGGCAACAUUCCGAGGGGACCGUCCCCUCGGUAAUGGCGAAUGGGACCCA [U23A U37C], the self-cleavage worked out at 1.08.
For the variant GGCCGGCAUGGUCCCAGCCUCCACGCUGGCGCCGGCAGGGCAACAUUCCGAGGGGACCGUCCCCUCGGUAAUGGCGAAUGGGACCCA [U23A U37A], the self-cleavage was 0.0997.
Next, GGCCGGCAUGGUCCCAGCCUCCACGCUGGCGCCGGCUGGGCAGCAUUCCGAGGGGACCGUCCCCUCGGUAAUGGCGAAUGGGACCCA [U23A A43G]: 0.516; GGCCGGCAUGGUCCCAGCCUCUUCGCUGGCGCCGGCUGGGCAACAUGCCGAGGGGACCGUCCCCUCGGUAAUGGCGAAUGGGACCCA [C22U U47G]: 0.58.
Next, GGCCGGCAUGGUCCCAGCCUCCACGCUGGCGUCGGCUGGGCAACAUUCCGAGGGGACCGUCCCCUCGGUAAUGGCGAAUGGGACCCA [U23A C32U]: 0.929; GGCCGGCAUGGUCCCAGCCUCCACGCUGGCGGCGGCUGGGCAACAUUCCGAGGGGACCGUCCCCUCGGUAAUGGCGAAUGGGACCCA [U23A C32G]: 0.253.
Regarding GGCCGGCAUGGUCCCAGCCUCCACGCUGGCGCCGGCUGGGGAACAUUCCGAGGGGACCGUCCCCUCGGUAAUGGCGAAUGGGACCCA [U23A C41G], the self-cleavage came to 0.849.
Next, GGCCGGCAUGGUCCCAGCCUCCCCGCUGGCGCCGGCUGGGCAACCUUCCGAGGGGACCGUCCCCUCGGUAAUGGCGAAUGGGACCCA [U23C A45C]: 0.573; GGCCGGCAUGGUCCCAGCCUCCACGCGGGCGCCGGCUGGGCAACAUUCCGAGGGGACCGUCCCCUCGGUAAUGGCGAAUGGGACCCA [U23A U27G]: 0.762; GGCCGGCAUGGUCCCAGCCUCCACGCUGGCGCCGGCUGGGCAACAUUCCGAGGGGACCUUCCCCUCGGUAAUGGCGAAUGGGACCCA [U23A G59U]: 1.09.
As for GGCCGGCAUGGUCCCAGCCUCCACGCUGGCGCCGGCUGGGCAACAUUCCGAGGGGACCAUCCCCUCGGUAAUGGCGAAUGGGACCCA [U23A G59A], the self-cleavage was determined as 1.12.
As for GGCCGGCAUGGUCCCAGCCUCCACGCUGGCGCCGGCUGGGCAACAUUCCGAGGGGACCCUCCCCUCGGUAAUGGCGAAUGGGACCCA [U23A G59C], the self-cleavage worked out at 0.811.
Next, GGCCGGCAUGGUCCCAGCCUCCCCGCUGGCGCCGGCUGGGCACCAUUCCGAGGGGACCGUCCCCUCGGUAAUGGCGAAUGGGACCCA [U23C A43C]: 0.465.
Next, GGCCGGCAUGGUCCCAGCCUCCCCGCUGGCGCCGGCUGGGCAGCAUUCCGAGGGGACCGUCCCCUCGGUAAUGGCGAAUGGGACCCA [U23C A43G]: 0.277; GGCCGGCAUGGUCCCAGCCUCCACGCUGGCGCCGGCUGGGCAACAUUCCGAGGGGACCGUCCCCUCGGUAAUGGCGAAUGGGACCCA [U23A]: 0.985.
With GGCCGGCAUGGUCCCAGCCUCCCCGCUGGCGCCGGCUGGGCAACAUUCCGAGGGGACCGUCCCCUCGGUAAUGGCGAAUGGGACCCA [U23C], the self-cleavage is 0.987.
With GGCCGGCAUGGUCCCAGCCUCCACGCUGGCGCCGUCUGGGCAACAUUCCGAGGGGACCGUCCCCUCGGUAAUGGCGAAUGGGACCCA [U23A G35U] the figure was 0.431; with GGCCGGCAUGGUCCCAGCCUCCACGCUGGCGCCGCCUGGGCAACAUUCCGAGGGGACCGUCCCCUCGGUAAUGGCGAAUGGGACCCA [U23A G35C], 0.212; with GGCCGGCAUGGUCCCAGCCUCCACGCUGGCGCCGGCUGGGCAACAUUCCGAGGGGGCCGUCCCCUCGGUAAUGGCGAAUGGGACCCA [U23A A56G], 1.02.
In the case of GGCCGGCAUGGUCCCAGCCUCCACGCUGGCGCCGGCUGUGCAACAUUCCGAGGGGACCGUCCCCUCGGUAAUGGCGAAUGGGACCCA [U23A G39U], the self-cleavage came to 0.696.
With GGCCGGCAUGGUCCCAGCCUCCACGCUGGCGCCGGCUGGGCAACAUUCCGAGGGGACCGUCCCCACGGUAAUGGCGAAUGGGACCCA [U23A U65A] the figure was 0.778; with GGCCGGCAUGGUCCCAGCCUCCACGCUGGCGCCGGCUGGGCAACAUUCCGAGGGGACCGUCCCCUCGGUAAUGGCGAGUGGGACCCA [U23A A78G], 0.697; with GGCCGGCAUGGUCCCAGCCUCCACGCUGGCGCCGGCUGGGCAACAUUCCGAGGGGACCGUCUCCUCGGUAAUGGCGAAUGGGACCCA [U23A C62U], 0.966.
With GGCCGGCAUGGUCCCAGCCUCCACGCUGGCGCCGGGUGGGCAACAUUCCGAGGGGACCGUCCCCUCGGUAAUGGCGAAUGGGACCCA [U23A C36G] the figure was 0.17; with GGCCGGCAUGGUCCCAGCCUCCACGCUGGCGCCGGCUGGGCAACAUUCCGAGGGGACCGUCCCCUCGGUAAUGCCGAAUGGGACCCA [U23A G74C], 0.323.
With GGCCGGCAUGGUCCCAGCCUCCACGCUGGCGCCGGCUGGGCAACCUUCCGAGGGGACCGUCCCCUCGGUAAUGGCGAAUGGGACCCA [U23A A45C] the figure was 0.344; with GGCCGGCAUGGUCCCAGCCUCCCCGCUGGCGCCGGCUGGGCAACAUUCCGAGGGGUCCGUCCCCUCGGUAAUGGCGAAUGGGACCCA [U23C A56U], 0.987.
In the case of GGCCGGCAUGGUCCCAGCCUCCACGCUGGCGCCGGCUGGGCAACAUUCCGAGGGGACCGUCCCCUCGGUAAUGGCGAAUCGGACCCA [U23A G80C], the self-cleavage is 0.101.
With GGCCGGCAUGGUCCCAGCCUCCACGCUGGCGCAGGCUGGGCAACAUUCCGAGGGGACCGUCCCCUCGGUAAUGGCGAAUGGGACCCA [U23A C33A], the self-cleavage was determined as 0.237.
GGCCGGCAUGGUCCCAGCCUCCACGCUGGCGCUGGCUGGGCAACAUUCCGAGGGGACCGUCCCCUCGGUAAUGGCGAAUGGGACCCA [U23A C33U]: the self-cleavage amounted to 1.05.
Next, GGCCGGCAUGGUCCCAGCCUCUUCGCUGGCGCCGGCCGGGCAACAUUCCGAGGGGACCGUCCCCUCGGUAAUGGCGAAUGGGACCCA [C22U U37C]: 0.415; GGCCGGCAUGGUCCCAGCCUCCACGCUGGCGCCGGCUGGGCAACAUUCCGAGGGGACCGUCCCCUCGGUAAUGGCGAAUGGGAACCA [U23A C84A]: 0.944.
Turning to GGCCGGCAUGGUCCCAGCCUCCACGCUGGCGCCGGCUGGGCAACAUUCCGAGGGGACCGUCCCCUCGGUAAUGGCGAAUGGGACCCU [U23A A87U], the self-cleavage is 0.99.
With GGCCGGCAUGGUCCCAGCCUCCACGCUGGCGCCGGCUGGGCAACAUUCCGAGGGGACCGUCCCCUCGGUAAUGGCGAAUGGGACCCC [U23A A87C] the figure was 1.
Consider GGCCGGCAUGGUCCCAGCCUCCACGCUGGCGCCGGCUGGGCAACAUUCCGAGGGGACCGUCCCCUCGGUAAUGGCGAAUGGGACCCG [U23A A87G], for which the self-cleavage came out at 0.816.
On to GGCCGGCAUGGUCCCAGCCUCCACGCUGGCGCCGGCUGGGCAACAUUCCGAGGGGACCGUCCCCUCGGUAAUGGCGAAUGAGACCCA [U23A G81A], for which the self-cleavage is 0.305.
For GGCCGGCAUGGUCCCAGCCUCCACGCUGGCGCCGGCUGGGCAACAUUCCGAGGGGACCGUCCCCUCGGUAAUGGCGAAUGCGACCCA [U23A G81C], the self-cleavage turned out to be 0.306.
With GGCCGGCAUGGUCCCAGCCUCCACGCUGGCGCCGGCUGGGCAACAUUCCGAGGGGACCGUCCCCUCGGUAAUGGCGAAUGUGACCCA [U23A G81U] the figure was 0.134; with GGCCGGCAUGGUCCCAGCCUCCACGCUGGCGCCGGCUGGGCAACAUACCGAGGGGACCGUCCCCUCGGUAAUGGCGAAUGGGACCCA [U23A U47A], 0.877.
Next, GGCCGGCAUGGUCCCAGCCUCCACGCUGGCGCCGGCUGGGCAACAUGCCGAGGGGACCGUCCCCUCGGUAAUGGCGAAUGGGACCCA [U23A U47G]: 0.748; GGCCGGCAUGGUCCCAGCCUCCACGCUGGCGCCGGCUGGGCAACAUUCCGAGGGGACCGUCCCCUCGGUCAUGGCGAAUGGGACCCA [U23A A70C]: 1.01; GGCCGGCAUGGUCCCAGCCUCCACGCUGGCGCCGGCUGGGCAACAUUCCUAGGGGACCGUCCCCUCGGUAAUGGCGAAUGGGACCCA [U23A G50U]: 0.964.
With GGCCGGCAUGGUCCCAGCCUCCACGCUGGCGCCGGCUGGGCAACAUUCCGAGGGGACCGUCCCCUCGGUAAGGGCGAAUGGGACCCA [U23A U72G] the figure was 0.302; with GGCCGGCAUGGUCCCAGCCUCCACGCUGGCGCCGGCUGGGCAACAUUCUGAGGGGACCGUCCCCUCGGUAAUGGCGAAUGGGACCCA [U23A C49U], 1.13.
Regarding GGCCGGCAUGGUCCCAGCCUCCACGCUGGCGCCGGCUGGGCAACAUUACGAGGGGACCGUCCCCUCGGUAAUGGCGAAUGGGACCCA [U23A C48A], the self-cleavage was found to be 0.88.
Next, GGCCGGCAUGGUCCCAGCCUCCACGCUGGCGCCGGCUGGGCAACAUUCCGUGGGGACCGUCCCCUCGGUAAUGGCGAAUGGGACCCA [U23A A51U]: 0.923.
Next, GGCCGGCAUGGUCCCAGCCUCCACGCUGGCGCCGGCUGGGCAACAUUCCGAGGGGACCGACCCCUCGGUAAUGGCGAAUGGGACCCA [U23A U60A]: 0.98; GGCCGGCAUGGUCCCAGCCUCCACGCUGGCGCCGGCUGGGCAACAUUCCGAGGGGACCGGCCCCUCGGUAAUGGCGAAUGGGACCCA [U23A U60G]: 0.923.
Next, GGCCGGCAUGGUCCCAGCCUCCACGCUGGCGCCGGCUGGGCAACAUUCCGAGGAGACCGUCCCCUCGGUAAUGGCGAAUGGGACCCA [U23A G54A]: 1.01; GGCCGGCAUGGUCCCAGCCUCCACGCUGGCGCCGGCUGGGCAACAUUCCGAGGCGACCGUCCCCUCGGUAAUGGCGAAUGGGACCCA [U23A G54C]: 1.15.
Consider GGCCGGCAUGGUCCCAGCCUCCACGUUGGCGCCGGCUGGGCAACAUUCCGAGGGGACCGUCCCCUCGGUAAUGGCGAAUGGGACCCA [U23A C26U], for which the self-cleavage worked out at 1.08.
Next, GGCCGGCAUGGUCCCAGCCUCCACGAUGGCGCCGGCUGGGCAACAUUCCGAGGGGACCGUCCCCUCGGUAAUGGCGAAUGGGACCCA [U23A C26A]: 1.23.
Next, GGCCGGCAUGGUCCCAGCCUCCACGCUAGCGCCGGCUGGGCAACAUUCCGAGGGGACCGUCCCCUCGGUAAUGGCGAAUGGGACCCA [U23A G28A]: 0; GGCCGGCAUGGUCCCAGCCUCCACGCUCGCGCCGGCUGGGCAACAUUCCGAGGGGACCGUCCCCUCGGUAAUGGCGAAUGGGACCCA [U23A G28C]: 0.142.
Regarding GGCCGGCAUGGUCCCAGCCUCCACGCUGGCGCCGGCUGGGCAACAUUCCGAGGGGACCGUCCCCUCGGUAAUGGGGAAUGGGACCCA [U23A C75G], the self-cleavage was determined as 0.116.
Next, GGCCGGCAUGGUCCCAGCCUCCACGCUGGCGCCGGCUGGGCAACAUUCCGAGGGGACCGUCCCCUCGGUAAUGGAGAAUGGGACCCA [U23A C75A]: 0.277.
